T1: cynomolgus monkey IL-4 (cynomolgus monkey, UniProt P79339 25-153)
T1 construct: mature; also called cy IL-4; cyno IL-4
T1 sequence (looked up): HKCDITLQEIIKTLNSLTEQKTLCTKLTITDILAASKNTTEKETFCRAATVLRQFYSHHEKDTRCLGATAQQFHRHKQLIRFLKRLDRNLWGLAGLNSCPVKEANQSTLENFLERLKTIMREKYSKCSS

T2: human IL-23 (human, UniProt Q9NPF7 20-189; P29460 23-328)
T2 sequence (looked up) 1: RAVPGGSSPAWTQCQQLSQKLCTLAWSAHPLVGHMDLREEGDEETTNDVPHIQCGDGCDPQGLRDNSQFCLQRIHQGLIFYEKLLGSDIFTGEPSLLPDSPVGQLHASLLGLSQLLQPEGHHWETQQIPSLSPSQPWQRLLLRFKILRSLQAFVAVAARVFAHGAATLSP
T2 sequence (looked up) 2: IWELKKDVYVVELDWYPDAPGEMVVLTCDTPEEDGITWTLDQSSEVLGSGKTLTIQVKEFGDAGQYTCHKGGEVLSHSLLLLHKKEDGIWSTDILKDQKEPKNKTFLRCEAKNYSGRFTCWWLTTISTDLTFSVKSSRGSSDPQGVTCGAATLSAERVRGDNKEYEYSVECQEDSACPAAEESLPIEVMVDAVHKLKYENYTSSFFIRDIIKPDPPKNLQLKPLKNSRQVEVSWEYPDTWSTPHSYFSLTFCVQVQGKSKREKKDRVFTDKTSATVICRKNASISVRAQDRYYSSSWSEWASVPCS

T3: human IL-4 (human, UniProt P05112 25-153)
T3 sequence (looked up): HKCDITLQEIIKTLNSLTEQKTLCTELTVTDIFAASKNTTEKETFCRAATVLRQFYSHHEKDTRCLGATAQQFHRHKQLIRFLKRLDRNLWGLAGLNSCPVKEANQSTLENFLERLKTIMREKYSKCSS

T4: human IL-12 (human, UniProt P29459 23-219; P29460 23-328)
T4 sequence (looked up) 1: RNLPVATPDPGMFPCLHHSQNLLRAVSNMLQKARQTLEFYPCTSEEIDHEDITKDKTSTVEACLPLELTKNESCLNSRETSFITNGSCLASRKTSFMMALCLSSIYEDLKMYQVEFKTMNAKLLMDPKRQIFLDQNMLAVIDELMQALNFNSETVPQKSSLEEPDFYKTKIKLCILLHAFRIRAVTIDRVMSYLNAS
T4 sequence (looked up) 2: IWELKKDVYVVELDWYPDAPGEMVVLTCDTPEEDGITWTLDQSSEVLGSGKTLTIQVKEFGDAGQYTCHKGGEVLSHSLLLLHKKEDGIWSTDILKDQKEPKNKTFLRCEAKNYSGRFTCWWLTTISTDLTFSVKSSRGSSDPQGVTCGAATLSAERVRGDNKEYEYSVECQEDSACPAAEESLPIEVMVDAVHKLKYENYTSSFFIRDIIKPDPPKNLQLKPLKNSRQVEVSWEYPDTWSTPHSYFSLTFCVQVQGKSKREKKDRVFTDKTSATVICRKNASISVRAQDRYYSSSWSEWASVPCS

T5: cynomolgus monkey IL-12 (cynomolgus monkey, UniProt A0A2K5V4L8 57-253; G7P6S2 23-328)
T5 sequence (p35): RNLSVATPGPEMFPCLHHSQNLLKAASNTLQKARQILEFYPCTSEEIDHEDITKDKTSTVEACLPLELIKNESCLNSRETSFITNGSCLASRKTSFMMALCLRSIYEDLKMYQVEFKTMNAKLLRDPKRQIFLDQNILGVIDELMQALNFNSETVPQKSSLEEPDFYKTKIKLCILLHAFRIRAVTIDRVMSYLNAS
T5 sequence (p40): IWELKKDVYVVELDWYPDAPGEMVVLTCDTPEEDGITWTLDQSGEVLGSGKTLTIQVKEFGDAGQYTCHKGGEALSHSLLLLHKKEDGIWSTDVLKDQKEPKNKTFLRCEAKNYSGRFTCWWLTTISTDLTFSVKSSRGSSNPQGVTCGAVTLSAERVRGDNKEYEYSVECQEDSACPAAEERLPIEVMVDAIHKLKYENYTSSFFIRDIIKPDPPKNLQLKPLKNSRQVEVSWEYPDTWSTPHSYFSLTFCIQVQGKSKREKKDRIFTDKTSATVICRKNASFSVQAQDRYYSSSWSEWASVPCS

T6: recombinant human IL-33 (wild type, Ser112-Thr270) (human, UniProt O95760 112-270)
T6 sequence (looked up): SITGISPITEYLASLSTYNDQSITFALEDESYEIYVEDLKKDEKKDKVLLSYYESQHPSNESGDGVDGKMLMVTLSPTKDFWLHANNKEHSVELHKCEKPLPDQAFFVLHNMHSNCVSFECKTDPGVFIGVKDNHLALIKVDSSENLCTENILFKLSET

T7: human IL-4 (human, UniProt P05112 25-153)
T7 sequence (looked up): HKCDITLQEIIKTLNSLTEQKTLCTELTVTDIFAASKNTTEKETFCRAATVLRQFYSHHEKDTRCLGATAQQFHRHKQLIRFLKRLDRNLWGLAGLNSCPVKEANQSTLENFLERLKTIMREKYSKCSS


Experiments:
cynomolgus monkey IL-4 = target: T1, cynomolgus monkey IL-4; assay: KinExA, fixed antigen
Procedure: Samples were prepared in PBS containing 0.1% sodium azide and 1.0 mg/ml BSA. The fixed antigen assay method was used to determine binding affinity. […] Each trispecific and IL-4 cytokine were equilibrated for at least 72 hours at room temperature, then passed through a flow cell containing Polymethylmethacrylate (PMMA) beads coated with anti-hIL-4 Ab-0002 (Pfizer) that contains the same IL-4 binding domain as the trispecifics. […] Data analysis was performed with KinExA Pro software version 4.3.11 (Sapidyne). […] The ‘drift correction’ fitting option was used when responses varied between replicate injections. Two curves were obtained in independent experiments and analyzed using the ‘n-curve analysis’ tool to obtain global best fit values for the KD and active concentration of IL-4 cytokine. The software reports each best fit value along with a 95% confidence interval.
Samples were prepared in PBS containing 0.1% sodium azide and 1.0 mg/ml BSA. A fixed antigen assay method was used to determine binding affinity.

human IL-13 [1] = target: human IL-13 (human, UniProt P35225 35-146); assay: cell-based or functional assay
Target sequence in this assay (P35225 35-146 limits assumed, form in doubt): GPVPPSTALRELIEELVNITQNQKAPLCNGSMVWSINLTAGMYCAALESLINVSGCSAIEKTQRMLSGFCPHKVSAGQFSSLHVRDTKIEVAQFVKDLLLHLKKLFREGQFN

human IL-23 = target: T2, human IL-23; assay: cell-based or functional assay
cynomolgus monkey IL-13 = cynomolgus monkey IL-13 (cynomolgus monkey, UniProt Q0PW92 19-132); assay: cell-based or functional assay
Chain of cynomolgus monkey IL-13 (Q0PW92 entry or part of it limits assumed): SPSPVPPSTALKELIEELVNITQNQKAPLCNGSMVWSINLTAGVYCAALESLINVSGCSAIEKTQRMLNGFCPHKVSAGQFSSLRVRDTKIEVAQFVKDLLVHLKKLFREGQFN

human IL-4 [2] = target: T3, human IL-4; assay: cell-based or functional assay
cynomolgus monkey IL-23 = cynomolgus monkey IL-23 (cynomolgus monkey, UniProt H6WS56 20-189); assay: cell-based or functional assay
human IL-12 = target: T4, human IL-12; assay: cell-based or functional assay
cynomolgus monkey IL-12 = target: T5, cynomolgus monkey IL-12; assay: cell-based or functional assay
[3] = target: T6, recombinant human IL-33 (wild type, …); assay: cell-based or functional assay
human IL-4 [4] = target: T7, human IL-4; assay: cell-based or functional assay; remark: listed apart in the source
human IL-13 [5] = target: human IL-13 (human, UniProt P35225 35-146); assay: cell-based or functional assay; remark: listed apart in the source
Target sequence in this assay (P35225 35-146 limits assumed): as the sequence (P35225 35-146 limits assumed, form in doubt) above

fold of the human IL-4 affinity value (cynomolgus monkey IL-4) [fold] | fold IL-13 neutralization activity over dupilumab (monocyte CD23 bioassay) (human IL-13 [1]) [fold] | fold lower potency than IL13-0001 (monocyte CD23 bioassay) (human IL-13 [1]) [fold] | fold less potent than p40-0003, Kit-225 pSTAT3 assay (human IL-23) [fold] | fold less potent than p40-0003, whole blood pSTAT3 assay (human IL-23) [fold] | fold reduced neutralization compared to the human cytokine (monocyte CD23 bioassay) (cynomolgus monkey IL-13) [fold] | fold IL-4 neutralization activity over dupilumab (monocyte CD23 bioassay) (human IL-4 [2]) [fold] | fold lower potency than mAb IL4-1040 (monocyte CD23 bioassay) (human IL-4 [2]) [fold] | fold difference in potency between human and cynomolgus monkey IL-23, Kit-225 assay (cynomolgus monkey IL-23) [fold] | fold less potent than p40-0003, Kit-225 pSTAT4 assay (human IL-12) [fold] | fold less potent than p40-0003, whole blood pSTAT4 assay (human IL-12) [fold] | fold difference in potency between human and cynomolgus monkey IL-12, Kit-225 assay (cynomolgus monkey IL-12) [fold] | a-IL-33 bioassay (WT) IC50 [pM] [3] [pM] | a-hIL-4 IC50 [pM] (human IL-4 [4]) | a-hIL-13 IC50 [pM] (human IL-13 [5]) | Binder
≤ 1.2 | 8.9 | ~2.4 | 2.6 | 2.4 | ~4 | ~10 | ~3.2 | < 2 | 2.9 | 1.5 | < 2 |  |  |  | IL413P40-0705 (trispecific antibody, EE/RR, LS; also called IL134P40-0705; Tri-Fab-Fc IL413p40-0705) heavy: EVQLVQSGAEVKKPGESLKISCKGSGYSFTTYWLGWVRQMPGKGLDWIGIMSPVDSDIRYSPSFQGQVTMSVDKSITTAYLQWNSLKASDTAMYYCARRRPGQGYFDFWGQGTLVTVSSASTKGPSVFPLAPSSKSTSGGTAALGCLVKDYFPEPVTVSWNSGALTSGVHTFPAVLQSSGLYSLSSVVTVPSSSLGTQTYICNVNHKPSNTKVDKKVEPKSCRKTHTCPPCPAPEAAGAPSVFLFPPKPKDTLMISRTPEVTCVVVDVSHEDPEVKFNWYVDGVEVHNAKTKPREEQYNSTYRVVSVLTVLHQDWLNGKEYKCKVSNKALPAPIEKTISKAKGQPREPQVYTLPPSREEMTKNQVSLTCLVKGFYPSDIAVEWESNGQPENNYKTTPPVLDSDGSFFLYSRLTVDKSRWQQGNVFSCSVLHEALHSHYTQKSLSLSPGK chain 1: DIQMTQSPSSLSASVGDRVTITCKASESVDHFGWSLVHWYQQKPGKAPKLLIYRASNLESGVPSRFSGSGSGTDFTLTISSLQPEDFATYYCQQSNEDPWTFGGGTKVEIKRTVAAPSVFIFPPSDEQLKSGTASVVCLLNNFYPREAKVQWKVDNALQSGNSQESVTEQDSKDSTYSLSSTLTLSKADYEKHKVYACEVTHQGLSSPVTKSFNRGECGGGGSEVTLRESGPALVKPTQTLTLTCTFSGFSLSNFGEGLSWIRQPPGKGLEWLAHIYWDDDKRYNPSLKSRLTISKDTSRNQVVLTMTNMDPVDTATYYCARRETVFYWYFDVWGQGTTVTVSSASTKGPSVFPLAPSSKSTSGGTAALGCLVKDYFPEPVTVSWNSGALTSGVHTFPAVLQSSGLYSLSSVVTVPSSSLGTQTYICNVNHKPSNTKVDKKVEPKSCEKTHTCPPCPAPEAAGAPSVFLFPPKPKDTLMISRTPEVTCVVVDVSHEDPEVKFNWYVDGVEVHNAKTKPREEQYNSTYRVVSVLTVLHQDWLNGKEYKCKVSNKALPAPIEKTISKAKGQPREPQVYTLPPSREEMTKNQVSLTCEVKGFYPSDIAVEWESNGQPENNYKTTPPVLDSDGSFFLYSKLTVDKSRWQQGNVFSCSVLHEALHSHYTQKSLSLSPGK light 1: not shown light 2: DIQMTQSPSSLSASVGDRVTITCRASQSVDEEGDSYMNWYQQKPGKAPKLLIYAASNLESGVPSRFSGSGSGTDFTLTISSLQPEDFATYYCQQSNKDPPTFGGGTKVEIKRTVAAPSVFIFPPSDEQLKSGTASVVCLLNNFYPREAKVQWKVDNALQSGNSQESVTEQDSKDSTYSLSSTLTLSKADYEKHKVYACEVTHQGLSSPVTKSFNRGEC chain 2: EVQLVESGGGLVQPGGSLRLSCAASGFTFSSYAMSWVRQAPGKGLEWVASISSGDTTYYPDSVKGRFTISRDNAKNSLYLQMNSLRAEDTAVYYCARNEGYYFGLTLWGQGTLVTVSSASTKGPSVFPLAPSSKSTSGGTAALGCLVKDYFPEPVTVSWNSGALTSGVHTFPAVLQSSGLYSLSSVVTVPSSSLGTQTYICNVNHKPSNTKVDKKVEPKSC
 |  |  |  |  |  |  |  |  |  |  |  | 28 | 7.1 | 12.4 | IL13433-1042 (other) heavy: EVQLVESGGGLVQPGGSLRLSCAASGFTFSSYWMYWVRQAPGKGLEWVAAITPNAGEDYYPESVKGRFTISRDNAKNSLYLQMNSLRAEDTAVYYCARGQYYYTKYSLGYWGQGTLVTVSSASTKGPSVFPLAPSSKSTSGGTAALGCLVKDYFPEPVTVSWNSGALTSGVHTFPAVLQSSGLYSLSSVVTVPSSSLGTQTYICNVNHKPSNTKVDKKVEPKSCRKTHTCPRCPAPEAAGAPSVFLFPPKPKDTLMISRTPEVTCVVVDVSHEDPEVKFNWYVDGVEVHNAKTKPREEQYNSTYRVVSVLTVLHQDWLNGKEYKCKVSNKALPAPIEKTISKAKGQPREPQVYTLPPSREEMTKNQVSLTCLVKGFYPSDIAVEWESNGQPENNYKTTPPVLDSDGSFFLYSRLTVDKSRWQQGNVFSCSVLHEALHSHYTQKSLSLSPGK chain 1: DIQMTQSPSSLSASVGDRVTITCKASESVDHFGWSLVHWYQQKPGKAPKLLIYRASNLESGVPSRFSGSGSGTDFTLTISSLQPEDFATYYCQQSNEDPWTFGGGTKVEIKRTVAAPSVFIFPPSDEQLKSGTASVVCLLNNFYPREAKVQWKVDNALQSGNSQESVTEQDSKDSTYSLSSTLTLSKADYEKHKVYACEVTHQGLSSPVTKSFNRGECGGGGSEVTLRESGPALVKPTQTLTLTCTFSGFSLSNFGEGLSWIRQPPGKGLEWLAHIYWDDDKRYNPSLKSRLTISKDTSRNQVVLTMTNMDPVDTATYYCARRETVFYWYFDVWGQGTTVTVSSASTKGPSVFPLAPSSKSTSGGTAALGCLVKDYFPEPVTVSWNSGALTSGVHTFPAVLQSSGLYSLSSVVTVPSSSLGTQTYICNVNHKPSNTKVDKKVEPKSCEKTHTCPECPAPEAAGAPSVFLFPPKPKDTLMISRTPEVTCVVVDVSHEDPEVKFNWYVDGVEVHNAKTKPREEQYNSTYRVVSVLTVLHQDWLNGKEYKCKVSNKALPAPIEKTISKAKGQPREPQVYTLPPSREEMTKNQVSLTCEVKGFYPSDIAVEWESNGQPENNYKTTPPVLDSDGSFFLYSKLTVDKSRWQQGNVFSCSVLHEALHSHYTQKSLSLSPGK light 1: DIQMTQSPSSLSASVGDRVTITCRASQPIHNHLDWYQQKPGKAPKLLIYFGKNLQEGVPSRFSGSGSGTDFTLTISSLQPEDFATYYCFQYKKGWSFGGGTKVEIKRTVAAPSVFIFPPSDEQLKSGTASVVCLLNNFYPREAKVQWKVDNALQSGNSQESVTEQDSKDSTYSLSSTLTLSKADYEKHKVYACEVTHQGLSSPVTKSFNRGEC light 2: DIQMTQSPSSLSASVGDRVTITCRASQSVDEEGDSYMNWYQQKPGKAPKLLIYAASNLESGVPSRFSGSGSGTDFTLTISSLQPEDFATYYCQQSNEDPPTFGGGTKVEIKRTVAAPSVFIFPPSDEQLKSGTASVVCLLNNFYPREAKVQWKVDNALQSGNSQESVTEQDSKDSTYSLSSTLTLSKADYEKHKVYACEVTHQGLSSPVTKSFNRGEC chain 2: EVQLVESGGGLVQPGGSLRLSCAASGFTFSSYAMSWVRQAPGKGLEWVASISSGDTTYYPDSVKGRFTISRDNAKNSLYLQMNSLRAEDTAVYYCARNEGYYFGLTLWGQGTLVTVSSASTKGPSVFPLAPSSKSTSGGTAALGCLVKDYFPEPVTVSWNSGALTSGVHTFPAVLQSSGLYSLSSVVTVPSSSLGTQTYICNVNHKPSNTKVDKKVEPKSC
